Values quoted from earlier work, collected in article PMC10293842 (Proceedings of the National Academy of Sciences of the …, 2023).

Tested on: Omicron BA.1 and BA.2

B1: Adintrevimab (antibody, chains of the INN, looked up, V domains shown)
VH: EVQLVESGGGLVKPGGSLRLSCAASGFTFSSYYMNWVRQAPGKGLEWVSSISEDGYSTYYPDSLKGRFTISRDSAKNSLYLQMNSLRADDTAVYYCARDFSGHTAWAGTGFEYWGQGTLVTVSS
VL: QSVLTQPPSVSGAPGQRITISCTGSSSNIGAGYDVHWYQQLPGTAPKLLIYGSSSRNSGVPDRFSGSKSGTSASLAITGLQAEDEADYYCQSYDSSLSVLYTFGTGTKVTVL
For B1, the decrease in activity is listed as 20 fold.
